# Reference: patent US20240240209A1, “SYNTHESIS OF ENANTIOPURE CIS-A-IRONE FROM A RENEWABLE CARBON SOURCE” (Agency for Science, Technology and Research, priority 2021, published 2024)
# Assay: Fed-batch production of cis-α-irone in 5 L bioreactor
# Assay type: cell-based, Escherichia coli
# Conditions: 10% DO, another 24 h after feeding stopped
# Protocol: FIGS. 5a and 5b show the time-course profiles of OD600, cis-α-irone, β-irone and psi-ionone titers when DO was controlled at 2% and 10% respectively.
# Lastly, a single-phase fed-batch process was tested in a 5 L bioreactor. Even though 2O31 ΔmetJ strain produced a higher titer of cis-α-irone, its growth seemed to be impeded during fermentation. Thus, 2O31-pMT10 strain was tested. The optimized bioprocess for α-ionone was applied^8, in which the glucose feeding rate was set at 10 g/h and the glucose concentration was kept between 0-5 g/L. Two different dissolved oxygen (DO) levels were tested: 2% and 10%. Under these DO settings, evaporation was kept at minimum which is <0.05%. […] Subsequently, cis-α-irone production became faster at 2% DO than 10% DO. At 113 h, when glucose feeding was stopped, approximately 109 mg/L and 106 mg/L cis-α-irone were produced at 2% and 10% DO respectively. By continuing incubating the cultures for another 24 h, a final titer of approximately 153 mg/L and 172 mg/L cis-α-irone were produced at 2% and 10% DO respectively. Simultaneously, a decrease in psi-ionone concentration was observed during the last 24 h, indicating psi-ionone was converted to cis-α-irone. Other DO levels may also be used, for example 15%. […]
molecule,measurement,value
"pMT10: pMT1 with Y200F S182E L273V L180A A202L Y65F C156A T91P (protein, Modified from pMT1, pMT1 with Y200F S182E L273V L180A A202L Y65F C156A T91P) MPQEARTPQQQVTADEVGDWYDKFGEVYHLTLGESVHCGLWFPPDAPVPQDMELVTMSSQAQDRFTDYLIETLDPKAGQHLLDIGCGTGRPALKAARQRGIAVTGVAVSKEQIAAANRLAAGHGLTERLTFEVADAMRLPYEDESFDCAWAIESLAHMDRAKALGEAWRVLKPGGDLLVAEEVVTEELTEPETALFETLFALNVPPRLGEFFDIVSGAGFHTLSLKDLSANLAMTMNVFALGVYSRRAEFTERFGAEFVDGLLAGLGSAQETVIRKTRFFMATLRKPAV",final titer of cis-α-irone,~172 mg/L
